B1: Serine/threonine-protein kinase STE20 (Saccharomyces cerevisiae), Q03497 (parent)
chain: MSNDPSAVSELPDKDSLDNGISNDNERAMGGNGDGGDGLRLPRTTGTLNVNALQKGTNAAHEAGGYKSMDPAKNAETTNDDDNNVVSLDDPIQFTRVSSSSVISGMSSSMSPHSNIDETKSLEAVTPNINTSNITPDHSADNTFSTINASESDHQFNDTLLSKLSLTDSTETIENNATVKHQQPVASSTVNSNKSSTDIRRATPVSTPVISKPSMTTTPRQINSASHSLSNPKHKQHKPKVKPSKPEAKSKPVSVKKSFPSKNPLKNSSPPKKQTEKSYYSSSSKKRKSGSNSGTLRMKDVFTSFVQNIKRNSQDDKRASSSSNNSSSSSITTALRISTPYNAKHIHHVGVDSKTGEYTGLPEEWEKLLTSSGISKREQQQNMQAVMDIVKFYQDVTETNGEDKMFKTFNTTTGLPGSPQVSTPPANSFNKFPPSTSDSHNYGSRTGTPMSNHVMSPTLNTDSSSANGKFIPSRPAPKPPSSASASAPIIKSPVMNSAANVSPLKQTHAPTTPNRTSPNRSSISRNATLKKEEQPLPPIPPTKSKTSPIISTAHTPQQVAQSPKAPAQETVTTPTSKPAQARSLSKELNEKKREERERRKKQLYAKLNEICSDGDPSTKYANLVKIGQGASGGVYTAYEIGTNVSVAIKQMNLEKQPKKELIINEILVMKGSKHPNIVNFIDSYVLKGDLWVIMEYMEGGSLTDVVTHCILTEGQIGAVCRETLSGLEFLHSKGVLHRDIKSDNILLSMEGDIKLTDFGFCAQINELNLKRTTMVGTPYWMAPEVVSRKEYGPKVDIWSLGIMIIEMIEGEPPYLNETPLRALYLIATNGTPKLKEPENLSSSLKKFLDWCLCVEPEDRASATELLHDEYITEIAEANSSLAPLVKLARLKKVAENMDADEDNDDDNDNEHINKTNNCDDNNDSKETVNLDVTEDDKQK
partner: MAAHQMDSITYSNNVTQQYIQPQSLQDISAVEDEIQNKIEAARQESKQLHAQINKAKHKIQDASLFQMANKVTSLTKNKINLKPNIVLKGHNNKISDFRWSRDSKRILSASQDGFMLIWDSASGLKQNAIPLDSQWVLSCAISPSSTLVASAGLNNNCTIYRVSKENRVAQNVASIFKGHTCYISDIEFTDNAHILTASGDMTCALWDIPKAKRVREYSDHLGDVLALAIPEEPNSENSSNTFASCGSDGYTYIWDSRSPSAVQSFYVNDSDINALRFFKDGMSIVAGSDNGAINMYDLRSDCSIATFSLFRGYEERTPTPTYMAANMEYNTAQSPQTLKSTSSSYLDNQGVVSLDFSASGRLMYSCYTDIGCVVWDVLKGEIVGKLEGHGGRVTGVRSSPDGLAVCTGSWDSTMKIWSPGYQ
B2: Guanine nucleotide-binding protein subunit beta (Saccharomyces cerevisiae), P18851 (parent)
chain: B1 partner
partner: B1 chain

One experiment covers variants of B1. Particulars: with gbb_yeast STE4, P18851.
In the case of S879A;S880A;P883A, the “effect of a mutation on the interaction” value was “decreasing interaction”.

The next experiment covers variants of B2. The following applies: with ste20_yeast STE20, Q03497.
As to MAAHQMDSITYSNNVTQQYIQPQSLQDISAVEDEIQNKIEAARQESKQLHAQINKAKHKIQNASLFQMANKVTSLTKNKINLKPNIVLKGHNNKISDFRWSRDSKRILSASQDGFMLIWDSASGLKQNAIPLDSQWVLSCAISPSSTLVASAGLNNNCTIYRVSKENRVAQNVASIFKGHTCYISDIEFTDNAHILTASGDMTCALWDIPKAKRVREYSDHLGDVLALAIPEEPNSENSSNTFASCGSDGYTYIWDSRSPSAVQSFYVNDSDINALRFFKDGMSIVAGSDNGAINMYDLRSDCSIATFSLFRGYEERTPTPTYMAANMEYNTAQSPQTLKSTSSSYLDNQGVVSLDFSASGRLMYSCYTDIGCVVWDVLKGEIVGKLEGHGGRVTGVRSSPDGLAVCTGSWDSTMKIWSPGYQ [D62N], the “effect of a mutation on the interaction” value was “decreasing interaction”.
On the same count and under the same terms, in the case of MAAHQMDSITYSNNVTQQYIQPQSLQDISAVEDEIQNKIEAARQESKQLHAQINDAKHKIQDASLFQMANKVTSLTKNKINLKPNIVLKGHNNKISDFRWSRDSKRILSASQDGFMLIWDSASGLKQNAIPLDSQWVLSCAISPSSTLVASAGLNNNCTIYRVSKENRVAQNVASIFKGHTCYISDIEFTDNAHILTASGDMTCALWDIPKAKRVREYSDHLGDVLALAIPEEPNSENSSNTFASCGSDGYTYIWDSRSPSAVQSFYVNDSDINALRFFKDGMSIVAGSDNGAINMYDLRSDCSIATFSLFRGYEERTPTPTYMAANMEYNTAQSPQTLKSTSSSYLDNQGVVSLDFSASGRLMYSCYTDIGCVVWDVLKGEIVGKLEGHGGRVTGVRSSPDGLAVCTGSWDSTMKIWSPGYQ [K55D] it was “decreasing interaction”.
